The assay relates to primary gastrointestinal stromal tumor cells (GIST-1, GIST-2, GIST-3, GIST-4). Description: Screening of factors added to the culture medium: cell count after 14 days of culture. It counts as cell-based, human. As to conditions: for Level of promoting cell proliferation: additive at the concentration of Table 1 in basic medium vs basic medium, 14 days, 2% oxygen, Collagen I coated plate, four patient samples. The procedure: Rat tail collagen type I (Collagen type I, manufactured by Corning Inc.) was diluted with ultrapure water in a ratio of 1:50 to prepare a collagen diluent. The collagen diluent was added 500 μl/well into a 24-well culture plate to completely cover the bottom of the culture plate wells. After standing in a incubator at 37° C. for 1 hour, the collagen diluent was removed to provide a culture plate coated with collagen.
First, a basic medium was prepared. To a commercial DMEM/F-12 medium, GlutaMAX-I (manufactured by Thermo Fisher […]) was added at a dilution ratio of 1:100, insulin-containing culture additive Insulin-Transferrin-Selenium-Ethanolamine (ITS-X, manufactured by Gibco) was added at a dilution ratio of 1:100, a ROCK kinase inhibitor Y27632 (manufactured by Sigma) was added at a final concentration of 10 µM, and commercial Primocin solution (manufactured by InvivoGen) (commercial product in concentration of 50 mg/ml) was added at a dilution ratio of 1:500, to obtain the basic medium.
Next, different types of additives (Table 1) were added to the basic medium to prepare culture mediums for gastrointestinal stromal tumor cells containing different components. The culture mediums with different components were added at a volume of 500 μl/well to 24-well plates coated with Collagen I, with 3 wells for per medium formulation. The GIST cells (GIST-1) isolated from GIST tissues in Section (1) of this example were inoculated in the 24-well culture plate coated with Collagen I at a cell density of 3×10^4/well, and were cultured under different medium formulations at 37° C., under 5% CO2 concentration and 2% oxygen concentration. The mediums were renewed every 3 days after the start of the culture. After 14 days of culture, cell counts were performed.
The tumor cells isolated from the other three gastrointestinal stromal tumor tissue samples were also cultured and counted in the same manner as above.

B1: fibroblast growth factor 10: receptor tyrosine kinase ligand, medium additive (R&D) (protein, UniProt O15520 38-208, looked up)
Fibroblast growth factor 10: QALGQDMVSPEATNSSSSSFSSPSSAGRHVRSYNHLQGDVRWRKLFSFTKYFLKIEKNGKVSGTKKENCPYSILEITSVEIGVVAVKAINSNYYLAMNKKGKLYGSKEFNNDCKLKERIEENGYNTYASFNWQHNGRQMYVALNGKGAPRRGQKTRRKNTSAHFLPMVVHS
Regarding B1, the “Level of promoting cell proliferation” value is reported as “+”. For the same molecule, where the note is “additive in basic medium, in at least three cases”, the “Effect on proliferation of primary gastrointestinal stromal tumor cells (in words)” value was “promote the proliferation”.

B2: platelet-derived growth factor BB: receptor tyrosine kinase ligand, medium additive (R&D) (protein, UniProt P01127 82-190, looked up)
Platelet-derived growth …: SLGSLTIAEPAMIAECKTRTEVFEISRRLIDRTNANFLVWPPCVEVQRCSGCCNNRNVQCRPTQVQLRPVQVRKIEIVRKKPIFKKATVTLEDHLACKCETVAAARPVT
Regarding B2, the “Level of promoting cell proliferation” value is listed as “+”.
